T1: Myocilin olfactomedin domain, residues 228-504 (human), Q99972
T1 chain: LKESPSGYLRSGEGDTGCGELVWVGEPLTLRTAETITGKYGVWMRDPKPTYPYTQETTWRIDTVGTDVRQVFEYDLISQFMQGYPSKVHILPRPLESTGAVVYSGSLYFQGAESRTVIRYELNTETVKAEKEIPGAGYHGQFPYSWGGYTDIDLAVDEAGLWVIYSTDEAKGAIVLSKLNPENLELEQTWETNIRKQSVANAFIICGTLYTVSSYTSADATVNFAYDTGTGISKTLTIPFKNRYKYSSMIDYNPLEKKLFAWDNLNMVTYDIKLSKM


Tests used:
[1] = target: T1, Myocilin olfactomedin domain, residues …; assay: cross-linking; OLF-only control samples of the BS3(d0/d4) cross-linking experiments, PBS; SDS-PAGE and LC-MS; details: remark: other sources report otherwise
[2] = target: T2, Grp94 N and middle domains, residues 22-594 (human, UniProt P14625 22-594); assay: cross-linking; Grp94N, Grp94NM or Grp94MC:OLF 1:1, OLF 100 μM (dansylated or label-free), PBS, 10 mM BS3(d0/d4) 3 h at 37 °C; SDS-PAGE (Coomassie, dansyl fluorescence), in-gel digestion and LC-MS; details: both partners purified
T2 construct: Grp94, Homo sapiens, residues 22-594 (STOP codon installed after position 594 on the Grp94FL template); Tag removed with TEV protease; also called Grp94NM; NM; source: E. coli BL21(DE3), purified (HisTrap, SEC, TEV cleavage, SEC); not shown: His6, N-terminal, cleaved

[3] = target: T3, Grp94 Pre-N truncation variant, residues 58-804 (canine) (Canis lupus familiaris, UniProt P41148 58-804); assay: co-sedimentation; after the ThT aggregation assay (Grp94 construct 3 μM, OLF 30 μM, PBS, 42 °C, up to 96 h): centrifugation 10 min at 17,000 x g; supernatant, wash and pellet on 12% reducing SDS-PAGE, Coomassie, densitometry; only samples containing OLF gave pellets; details: both partners purified
T3 construct: C-terminal 6xHis tag is non-cleavable; not shown: His6, C-terminal, kept

[4] = target: T4, Grp94 Pre-N truncation variant, residues 73-804 (canine) (Canis lupus familiaris, UniProt P41148 73-804); assay: as above; details: both partners purified
T4 construct: C-terminal 6xHis tag is non-cleavable; not shown: His6, C-terminal, kept

[5] = target: T5, Grp94 N-terminal nucleotide-binding domain (including Pre-N), residues 22-337 (human, UniProt P14625 22-337); assay: as above; details: both partners purified
T5 construct: Grp94, Homo sapiens, residues 22-337 (STOP codon installed after position 337 on the Grp94FL template); Tag removed with TEV protease; also called N domain; source: E. coli BL21(DE3), purified (HisTrap, SEC, TEV cleavage, SEC); not shown: His6, N-terminal, cleaved
T5 sequence (P14625 22-337): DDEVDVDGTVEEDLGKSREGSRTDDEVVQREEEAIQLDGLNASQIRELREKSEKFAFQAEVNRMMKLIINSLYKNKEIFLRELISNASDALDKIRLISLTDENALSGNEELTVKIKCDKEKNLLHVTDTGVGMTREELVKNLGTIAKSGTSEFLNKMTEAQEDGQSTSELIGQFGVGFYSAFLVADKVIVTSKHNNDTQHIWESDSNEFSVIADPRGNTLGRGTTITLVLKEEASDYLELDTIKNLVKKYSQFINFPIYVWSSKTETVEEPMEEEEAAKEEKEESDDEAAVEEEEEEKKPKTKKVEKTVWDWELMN

T2 sequence (P14625 22-594): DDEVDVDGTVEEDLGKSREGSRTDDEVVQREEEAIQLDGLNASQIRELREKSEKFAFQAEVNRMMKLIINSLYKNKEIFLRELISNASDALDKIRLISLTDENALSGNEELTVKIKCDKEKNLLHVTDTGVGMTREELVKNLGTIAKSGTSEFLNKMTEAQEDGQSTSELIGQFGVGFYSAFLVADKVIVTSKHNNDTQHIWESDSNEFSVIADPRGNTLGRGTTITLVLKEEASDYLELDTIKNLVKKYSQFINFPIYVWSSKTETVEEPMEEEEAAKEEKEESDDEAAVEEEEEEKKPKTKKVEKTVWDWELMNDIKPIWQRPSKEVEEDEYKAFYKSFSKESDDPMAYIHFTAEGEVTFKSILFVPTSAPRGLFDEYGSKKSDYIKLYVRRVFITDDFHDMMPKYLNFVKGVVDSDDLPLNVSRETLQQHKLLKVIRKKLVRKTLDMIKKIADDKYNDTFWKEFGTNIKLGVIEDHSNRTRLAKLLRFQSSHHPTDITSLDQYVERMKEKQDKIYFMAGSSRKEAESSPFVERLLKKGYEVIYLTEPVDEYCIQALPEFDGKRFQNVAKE
T3 sequence (P41148 58-804, change not shown): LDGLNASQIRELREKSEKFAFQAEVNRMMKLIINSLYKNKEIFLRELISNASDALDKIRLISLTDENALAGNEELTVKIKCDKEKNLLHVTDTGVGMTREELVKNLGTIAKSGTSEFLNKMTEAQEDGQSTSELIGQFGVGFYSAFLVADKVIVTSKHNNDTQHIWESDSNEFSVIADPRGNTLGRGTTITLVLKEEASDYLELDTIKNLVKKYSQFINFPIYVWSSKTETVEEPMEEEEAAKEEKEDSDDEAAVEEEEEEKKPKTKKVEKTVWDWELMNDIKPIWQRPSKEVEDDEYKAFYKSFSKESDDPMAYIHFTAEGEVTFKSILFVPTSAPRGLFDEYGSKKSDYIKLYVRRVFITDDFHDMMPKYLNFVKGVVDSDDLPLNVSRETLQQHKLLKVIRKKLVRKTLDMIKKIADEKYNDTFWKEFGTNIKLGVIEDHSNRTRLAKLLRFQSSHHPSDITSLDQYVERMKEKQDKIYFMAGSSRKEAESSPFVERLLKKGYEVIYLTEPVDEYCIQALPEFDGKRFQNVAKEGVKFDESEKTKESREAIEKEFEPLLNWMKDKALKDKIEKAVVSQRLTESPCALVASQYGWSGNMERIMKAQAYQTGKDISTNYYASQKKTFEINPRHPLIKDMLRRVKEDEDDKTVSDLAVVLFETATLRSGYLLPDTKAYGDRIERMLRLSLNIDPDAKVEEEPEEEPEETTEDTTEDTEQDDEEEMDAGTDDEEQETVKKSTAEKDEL
T4 sequence (P41148 73-804, change not shown): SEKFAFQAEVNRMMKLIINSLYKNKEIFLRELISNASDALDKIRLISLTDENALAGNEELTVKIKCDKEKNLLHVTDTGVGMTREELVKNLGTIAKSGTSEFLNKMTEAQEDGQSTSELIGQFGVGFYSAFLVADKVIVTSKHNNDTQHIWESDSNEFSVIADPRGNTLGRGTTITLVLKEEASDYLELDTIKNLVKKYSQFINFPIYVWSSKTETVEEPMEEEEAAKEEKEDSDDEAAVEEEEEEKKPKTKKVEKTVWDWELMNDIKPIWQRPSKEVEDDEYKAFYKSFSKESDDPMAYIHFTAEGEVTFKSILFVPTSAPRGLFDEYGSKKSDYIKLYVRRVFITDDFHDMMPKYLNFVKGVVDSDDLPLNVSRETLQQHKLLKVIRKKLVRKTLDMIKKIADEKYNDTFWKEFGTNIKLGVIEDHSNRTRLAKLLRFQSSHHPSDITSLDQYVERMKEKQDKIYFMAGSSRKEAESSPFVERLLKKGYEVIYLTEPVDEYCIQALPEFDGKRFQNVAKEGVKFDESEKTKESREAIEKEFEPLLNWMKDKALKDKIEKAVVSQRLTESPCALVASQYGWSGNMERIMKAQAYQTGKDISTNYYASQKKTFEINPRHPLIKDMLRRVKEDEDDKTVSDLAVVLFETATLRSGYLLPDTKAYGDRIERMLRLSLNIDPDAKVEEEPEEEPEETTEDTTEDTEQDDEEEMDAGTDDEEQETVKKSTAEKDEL

| Binder | stoichiometry N [1] | binding result [2] | binding result [3] | binding result [4] | binding result [5] |
| --- | --- | --- | --- | --- | --- |
| Myocilin olfactomedin domain, residues 228-504, Q99972 228-504 (domain or fragment) LKESPSGYLRSGEGDTGCGELVWVGEPLTLRTAETITGKYGVWMRDPKPTYPYTQETTWRIDTVGTDVRQVFEYDLISQFMQGYPSKVHILPRPLESTGAVVYSGSLYFQGAESRTVIRYELNTETVKAEKEIPGAGYHGQFPYSWGGYTDIDLAVDEAGLWVIYSTDEAKGAIVLSKLNPENLELEQTWETNIRKQSVANAFIICGTLYTVSSYTSADATVNFAYDTGTGISKTLTIPFKNRYKYSSMIDYNPLEKKLFAWDNLNMVTYDIKLSKM | 2 |  |  |  |  |
| Myocilin olfactomedin domain, residues 228-504 (domain or fragment, human, UniProt Q99972 228-504, looked up, Myocilin C-terminal olfactomedin (OLF) domain, Homo sapiens, residues 228-504; The results call S233 the N-terminal residue of the OLF construct, though the methods give residues 228-504 and a cross-link at K229 is reported; also called wild-type OLF) LKESPSGYLRSGEGDTGCGELVWVGEPLTLRTAETITGKYGVWMRDPKPTYPYTQETTWRIDTVGTDVRQVFEYDLISQFMQGYPSKVHILPRPLESTGAVVYSGSLYFQGAESRTVIRYELNTETVKAEKEIPGAGYHGQFPYSWGGYTDIDLAVDEAGLWVIYSTDEAKGAIVLSKLNPENLELEQTWETNIRKQSVANAFIICGTLYTVSSYTSADATVNFAYDTGTGISKTLTIPFKNRYKYSSMIDYNPLEKKLFAWDNLNMVTYDIKLSKM |  | binds | binds | binds | binds |
| Dansylated myocilin olfactomedin domain (domain or fragment, human, UniProt Q99972 228-504, looked up, dansyl (~2 dansyl modifications per OLFd by MS), sites not stated, Myocilin C-terminal olfactomedin (OLF) domain, Homo sapiens, residues 228-504; Same construct as m7, chemically labelled; also called OLFd; dansyl-modified OLF) LKESPSGYLRSGEGDTGCGELVWVGEPLTLRTAETITGKYGVWMRDPKPTYPYTQETTWRIDTVGTDVRQVFEYDLISQFMQGYPSKVHILPRPLESTGAVVYSGSLYFQGAESRTVIRYELNTETVKAEKEIPGAGYHGQFPYSWGGYTDIDLAVDEAGLWVIYSTDEAKGAIVLSKLNPENLELEQTWETNIRKQSVANAFIICGTLYTVSSYTSADATVNFAYDTGTGISKTLTIPFKNRYKYSSMIDYNPLEKKLFAWDNLNMVTYDIKLSKM |  | binds |  |  |  |

Source: paper PMC6726633, “Different Grp94 components interact transiently with the myocilin olfactomedin domain in vitro to enhance or retard its amyloid aggregation” (Scientific Reports, 2019)
